{"source": "patent US20150030697A1", "key": {"[1]": {"target": "Guanylate cyclase C (GC-C) (human), P25092", "sequence (P25092 24-1073)": "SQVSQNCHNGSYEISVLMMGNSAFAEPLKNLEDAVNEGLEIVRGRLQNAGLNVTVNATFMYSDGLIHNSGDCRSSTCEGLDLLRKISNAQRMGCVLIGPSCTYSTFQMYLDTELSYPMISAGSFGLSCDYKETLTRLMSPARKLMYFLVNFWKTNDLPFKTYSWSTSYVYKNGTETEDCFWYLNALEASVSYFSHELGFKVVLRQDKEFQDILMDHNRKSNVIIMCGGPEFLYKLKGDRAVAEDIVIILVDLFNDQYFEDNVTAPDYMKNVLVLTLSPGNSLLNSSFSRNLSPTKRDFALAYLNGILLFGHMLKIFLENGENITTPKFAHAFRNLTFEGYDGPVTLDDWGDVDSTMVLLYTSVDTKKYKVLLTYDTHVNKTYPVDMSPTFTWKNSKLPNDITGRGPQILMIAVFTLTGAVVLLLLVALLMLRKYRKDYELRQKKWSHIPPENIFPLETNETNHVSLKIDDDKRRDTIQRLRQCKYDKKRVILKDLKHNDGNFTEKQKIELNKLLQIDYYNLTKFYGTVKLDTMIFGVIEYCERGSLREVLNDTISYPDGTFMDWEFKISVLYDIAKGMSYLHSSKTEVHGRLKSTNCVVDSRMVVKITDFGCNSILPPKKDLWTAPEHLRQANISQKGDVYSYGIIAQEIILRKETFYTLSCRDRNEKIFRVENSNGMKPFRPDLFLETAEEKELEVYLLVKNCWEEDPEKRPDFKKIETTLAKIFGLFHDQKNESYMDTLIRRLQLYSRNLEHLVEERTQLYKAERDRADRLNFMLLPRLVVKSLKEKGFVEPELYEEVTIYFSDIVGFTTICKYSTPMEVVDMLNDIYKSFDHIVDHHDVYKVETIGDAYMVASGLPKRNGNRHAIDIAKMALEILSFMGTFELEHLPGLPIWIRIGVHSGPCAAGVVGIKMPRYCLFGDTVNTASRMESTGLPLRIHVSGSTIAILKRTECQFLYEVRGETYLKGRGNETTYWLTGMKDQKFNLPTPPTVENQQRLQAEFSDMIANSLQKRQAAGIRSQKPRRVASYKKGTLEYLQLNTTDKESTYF"}, "[2]": {"target": "Guanylate cyclase C (GC-C) (human), P25092", "experiment": "cell-based or functional assay"}}, "data": [{"binder": "CCELCCNPACTGCY (modifications not checked)", "note": "[Peptide 3]", "values": [{"measurement": "Ki", "setting": "[1]", "value": 1.2, "unit": "nM"}, {"measurement": "EC50 at pH 5 (nM), cGMP response of T84 cells", "setting": "[2]", "value": 16, "unit": "nM"}]}]}
